Data from PMC2760593 (Journal of biochemistry, 2008).

Biological target: T1, polyhistidine (His)-tagged recombinant full-length CCN2 (UniProt P29279 27-349)
T1 sequence (looked up): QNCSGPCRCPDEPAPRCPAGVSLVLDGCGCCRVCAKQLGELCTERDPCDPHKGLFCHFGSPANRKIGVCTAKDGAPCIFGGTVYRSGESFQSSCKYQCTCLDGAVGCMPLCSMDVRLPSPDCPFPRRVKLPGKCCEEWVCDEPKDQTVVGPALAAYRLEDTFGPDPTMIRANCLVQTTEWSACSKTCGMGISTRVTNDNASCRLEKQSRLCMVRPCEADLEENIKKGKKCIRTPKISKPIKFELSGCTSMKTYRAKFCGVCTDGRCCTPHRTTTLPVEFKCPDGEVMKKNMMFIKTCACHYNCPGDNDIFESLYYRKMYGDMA
Assay: SPR

Kd: 0.77 nM
B1: recombinant bone morphogenetic protein (BMP)-2 (ligand, UniProt P12643 283-396, looked up)
chain: QAKHKQRKRLKSSCKRHPLYVDFSDVGWNDWIVAPPGYHAFYCHGECPFPLADHLNSTNHAIVQTLVNSVNSKIPKACCVPTELSAISMLYLDENEKVVLKNYQDMVVEGCGCR
